According to publication PMC3636079, “Determinants at the N- and C-termini of Gα12 required for activation of Rho-mediated signaling” (Journal of Molecular Signaling, 2013):

What was measured:
[1] = target: T1, GST fusion of amino acids 320-606 of LARG (GST-LARG-RH) (UniProt Q9NZN5 320-606); assay: pull-down; GST fusion (or GST alone) immobilised on glutathione-sepharose; HEK293 detergent-soluble extract diluted to 0.05% polyoxyethylene-10-lauryl ether in 50 mM HEPES pH 7.5, 1 mM EDTA, 3 mM dithiothreitol, 10 mM MgSO4; about 2 h at 4°C; three washes; immunoblot with anti-Gα12 or anti-myc; band intensities given as pulldown:load ratio; settings: one partner purified
T1 construct: leukemia-associated RhoGEF (LARG), RGS-homology (RH) domain, amino acids 320-606; plasmid provided by Tohru Kozasa
T1 sequence (looked up): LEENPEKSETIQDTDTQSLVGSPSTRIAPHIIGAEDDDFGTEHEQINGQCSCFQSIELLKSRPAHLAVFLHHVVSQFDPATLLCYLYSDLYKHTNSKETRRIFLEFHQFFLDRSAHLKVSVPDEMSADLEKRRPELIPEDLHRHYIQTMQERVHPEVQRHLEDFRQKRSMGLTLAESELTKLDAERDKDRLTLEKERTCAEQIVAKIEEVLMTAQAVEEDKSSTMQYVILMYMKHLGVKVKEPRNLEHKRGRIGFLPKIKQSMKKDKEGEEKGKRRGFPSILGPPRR

[2] = target: T2, GST fusion of amino acids 1-252 of p115RhoGEF (GST-p115-RH) (UniProt Q92888 1-252); assay: as above; settings: one partner purified
T2 construct: p115RhoGEF, N-terminal 252 amino acids holding the RH domain; subcloned by PCR from a plasmid with an N-terminal myc tag on p115RhoGEF 1-252; also called RGS
T2 sequence (looked up): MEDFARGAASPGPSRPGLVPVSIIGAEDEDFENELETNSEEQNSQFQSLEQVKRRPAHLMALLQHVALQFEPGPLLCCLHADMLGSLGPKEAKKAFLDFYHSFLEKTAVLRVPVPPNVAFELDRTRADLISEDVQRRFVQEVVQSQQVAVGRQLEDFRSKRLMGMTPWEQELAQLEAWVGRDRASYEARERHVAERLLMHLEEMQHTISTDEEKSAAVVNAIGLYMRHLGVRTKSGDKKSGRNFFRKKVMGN

B1: myc-Gα12^QL Glu^31/33Arg (natural protein, UniProt P27600 1-379, looked up)
chain: MSGVVRTLSRCLLPAEAGARERRAGAARDARRRARRRSRDIDALLARERRAVRRLVKILLLGAGESGKSTFLKQMRIIHGREFDQKALLEFRDTIFDNILKGSRVLVDARDKLGIPWQHSENEKHGMFLMAFENKAGLPVEPATFQLYVPALSALWRDSGIREAFSRRSEFQLGESVKYFLDNLDRIGQLNYFPSKQDILLARKATKGIVEHDFVIKKIPFKMVDVGGLRSQRQKWFQCFDGITSILFMVSSSEYDQVLMEDRRTNRLVESMNIFETIVNNKLFFNVSIILFLNKMDLLVEKVKSVSIKKHFPDFKGDPHRLEDVQRYLVQCFDRKRRNRSKPLFHHFTTAIDTENIRFVFHAVKDTILQENLKDIMLQ
notes: Gα12 with Q229L and Glu31 and Glu33 changed to Arg; also called double charge substitution mutant; source: HEK293, transfected, in detergent-soluble extract
pulldown:load ratio, percent of myc-Gα12^QL [1]: ~18% | pulldown:load ratio, percent of myc-Gα12^QL [2]: ~86%
